# Reference: IntAct's records for PubMed 10398681
# B1: Protein TRANSPORT INHIBITOR RESPONSE 1 (Arabidopsis thaliana (Mouse-ear cress)), Q570C0 (parent)
# chain: MQKRIALSFPEEVLEHVFSFIQLDKDRNSVSLVCKSWYEIERWCRRKVFIGNCYAVSPATVIRRFPKVRSVELKGKPHFADFNLVPDGWGGYVYPWIEAMSSSYTWLEEIRLKRMVVTDDCLELIAKSFKNFKVLVLSSCEGFSTDGLAAIAATCRNLKELDLRESDVDDVSGHWLSHFPDTYTSLVSLNISCLASEVSFSALERLVTRCPNLKSLKLNRAVPLEKLATLLQRAPQLEELGTGGYTAEVRPDVYSGLSVALSGCKELRCLSGFWDAVPAYLPAVYSVCSRLTTLNLSYATVQSYDLVKLLCQCPKLQRLWVLDYIEDAGLEVLASTCKDLRELRVFPSEPFVMEPNVALTEQGLVSVSMGCPKLESVLYFCRQMTNAALITIARNRPNMTRFRLCIIEPKAPDYLTLEPLDIGFGAIVEHCKDLRRLSLSGLLTDKVFEYIGTYAKKMEMLSVAFAGDSDLGMHHVLSGCDSLRKLEIRDCPFGDKALLANASKLETMRSLWMSSCSVSFGACKLLGQKMPKLNVEVIDERGAPDSRPESCPVERVFIYRTVAGPRFDMPGFVWNMDQDSTMRFSRQIITTNGL
# Variants of: B1
# Conditions: with skp1b_arath SKP1B
row,Variant,effect of a mutation on the interaction
1,MQKRIALSFAEEVLEHVFSFIQLDKDRNSVSLVCKSWYEIERWCRRKVFIGNCYAVSPATVIRRFPKVRSVELKGKPHFADFNLVPDGWGGYVYPWIEAMSSSYTWLEEIRLKRMVVTDDCLELIAKSFKNFKVLVLSSCEGFSTDGLAAIAATCRNLKELDLRESDVDDVSGHWLSHFPDTYTSLVSLNISCLASEVSFSALERLVTRCPNLKSLKLNRAVPLEKLATLLQRAPQLEELGTGGYTAEVRPDVYSGLSVALSGCKELRCLSGFWDAVPAYLPAVYSVCSRLTTLNLSYATVQSYDLVKLLCQCPKLQRLWVLDYIEDAGLEVLASTCKDLRELRVFPSEPFVMEPNVALTEQGLVSVSMGCPKLESVLYFCRQMTNAALITIARNRPNMTRFRLCIIEPKAPDYLTLEPLDIGFGAIVEHCKDLRRLSLSGLLTDKVFEYIGTYAKKMEMLSVAFAGDSDLGMHHVLSGCDSLRKLEIRDCPFGDKALLANASKLETMRSLWMSSCSVSFGACKLLGQKMPKLNVEVIDERGAPDSRPESCPVERVFIYRTVAGPRFDMPGFVWNMDQDSTMRFSRQIITTNGL [P10A],decreasing interaction
